# Assay: yeast display, Sf9 membrane polyspecificity reagent, FACS + sequencing; frameworks hold sequencing errors
# Procedure, shortened: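 In a synthetic yeast display library (Saccharomyces cerevisiae BJ5465), nanobody expression was induced with galactose for 36–48 hours. FACS gates were set low and high (top ~1%) using anti-HA fluorescence for expression and streptavidin fluorescence for binding of the Sf9 membrane reagent. Each polyreactivity label is drawn from the gate of origin.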
row,Sequence,polyreactivity (PSR sort gate)
1,QVQLVESGGGLDQAGGSLRLRCAASGRNFRWYTMVWYRQAPGKEREFVAAITWSDTSTSYADSVKGRFTISRDNAKNTVYLQMNSLIPEYTAVYYCNAGDKVSSYWYDYWGQGTQVNVSS,low polyreactivity
2,QVQLVESGGGLDQAGGSLRLSCAASGFIFDYYAMGWYRQAPGKERELVAAISWDGDSTNYADSVKGRFTISRDNAKNTVYLQMNSLKPEDTAVYYCNADEQLVDGWFFRYDYWGQGTQVTVSS,low polyreactivity
3,QVQLVESGGGLDQAGGSLRLSCAASGFIYPVYTMGGYRQAPGKERELVAAITQIGGSTHYADTVKGRFTISRDNAKNTVYLQMNSLKPDETAVYYCNAVPSYGTEYDYWGHGTQVTVSS,low polyreactivity
4,QVQLVESGGGLDQAGGSLRLSCAASGFTFPWYPMGWYRQAPGKEREMVAAISTGGSTDYADSVKGRFTISRDNAKNTVYLKMNILKPEDTAVYYCNAGYWVRKYYHGGYWGQGTQVTLSS,high polyreactivity
5,QVQLVESGGGLDQAGGSLRLSCAASGFTFRFYAIGWYRQAPGKERELVAAIDTSGGRTYYADSVKGRFTISRDNANNTVYLQMNSLKPEDTAVYYCNAQVLYRYDYWGQGTQVTVSS,high polyreactivity
6,QVQLVESGGGLDQAGGSLRLSCAASGFTFWYYAMGWYRQAPGKERYLVATISSSGGSTYYADSVKGRFTISRDTAMNTVYLQMNSLKPEDTAVYYCNADDNPVWEYDYWGQGTLVTVSS,low polyreactivity
7,QVQLVESGGGLDQAGGSLRLSCAASGFTFYWYAMGWYRQAPGKEREFVAAIDQSGGSTYYADSVKGRFTISRDNAKNNVYLQMNSLKPEDTAVYYCAKLYNIGYDYWGLGTQVTVSS,low polyreactivity
8,QVQLVESGGGLDQAGGSLRLSCAASGFTLYRNAMGWYRQAPGKERELVAAITSSGGRTYYADSVKGRFTISRDNAKYTVYLQMNSLKPEDTAVYYCAAEFGLGYYYWGQGTQVNVSS,high polyreactivity
9,QVQLVESGGGLDQAGGSLRLSCAASGFTSYENAMGSYRQAPGKERELVAAITWDGGSTYYADSVKGRFTISRDNAKNTVYFQMNSLKPEDTAVYYCAARQVVYYAYTFDYWGQGTQVTVSS,low polyreactivity
10,QVQLVESGGGLDQAGGSLRLSCAASGFTSYKYSRGWYRQAPGKETELVAASTGSGSRTFYADSVKGRFTISRDNAKNSFYLLMNSLKPEDTADYYCAARRPLYPERDYWGHGTQVTVSS,high polyreactivity
11,QVQLVESGGGLDQAGGSLRLSCAASGIFGVNTMGWYRQAPGKERELVASITSGGSTNYADSVKGRFTISRDNAKNTVYLQMNSLKPEDTAVYYCAAGLYLQGPFDYWGQGTQVTVSS,low polyreactivity
12,QVQLVESGGGLDQAGGSLRLSCAASGIIFSQYAMGWYRQAPGKERELVAGITRSGGSTYYADSVKGRFTISRDNAKNTVYLQMNSLKPEDTAVYYCAAVQRYEYGYWGQGTQVTVSS,high polyreactivity
13,QVQLVESGGGLDQAGGSLRLSCAASGITFTFNAMGWYRQAPGKERELVAAISSTTSTKYADSVKGRFTISRDNAKYTVYLQMNSLKPEDTAVYYCAAVEFELRGDYWGQGTQVTVSS,low polyreactivity
14,QVQLVESGGGLDQAGGSLRLSCAASGITFYGYAMGWYRQAPGKEREFVAVITSTARTNYADSVKGRFTISRDNAKNTVYLQMNSLKPEDTAVYYCAARRVVRRDRYGSMDYWGQGTQVTVSS,high polyreactivity
15,QVQLVESGGGLDQAGGSLRLSCAASGITLTANAMGWYRQSPGTERELVAAISRGGSTYYADSVKGRFTISRDNAKNTVYLQMNSVKPEDTQVFYCNKAGGYWYAKRDYDYWGQGTQVTVSS,high polyreactivity
16,QVQLVESGGGLDQAGGSLRLSCAASGITLTNNAMGWYRQAPGKERELVAAITRSGGSTYYADSVKGRFTISRDNAKNTVYLQMNSLKPEDTAVYCAARWYSYSGSIRSYDYCGQGTQVTVSS,low polyreactivity
17,QVQLVESGGGLDQAGGSLRLSCAASGLIFRRYAMGWYRQAPGKEREFVAAIRWNGGTTYYADSVKGRFTISRDNAKYTVYLQMNSLKPEDTAVYYCAARVYPAYPRGYDYWGQGTQVTVSS,high polyreactivity
18,QVQLVESGGGLDQAGGSLRLSCAASGLIFYYYALGWYRQAPGKERELVAAISSRGSSTYYADSVKGRFTISRDNAKKTVYLQMNSLKPEDTAVYYCAADSVRKYFGYDYWGQGTQVTVSS,high polyreactivity
19,QVQLVESGGGLDQAGGSLRLSCAASGLTFAKYAMGWYRQAPGKERELVAAIRSGDDTTYADSVKGRFTISRDNAKNTVYLQMNSLKPEDTAVYYCAARYYRTWHGGFGYWGQGTQVTVSS,high polyreactivity
20,QVQLVESGGGLDQAGGSLRLSCAASGLTFATYAMGWYRQAPGKERELVAAINGRGASTNYADSVKGRFTISRDNAKNTVYLKMNSLKPEDTAVYYCASRLYRRNKYVLFDYWGQGTQVTVSS,high polyreactivity
21,QVQLVESGGGLDQAGGSLRLSCAASGLTFRYYAMGWYRQAPGKERELVAGISGRGGSTYYADSVKGRFTISRDNAKNTVYLQMNSLKPEDTAVYYCAADYSYGRFRRFDYWGQGTQVNVSS,high polyreactivity
22,QVQLVESGGGLDQAGGSLRLSCAASGLTFYTYAMGWYRQAPGTERELVAAIRWRGGRTYYADSVKGRFTISRDNAKNTVYLQMNSLKPEDTAVYYCAADYSTLYKYDYWGQGTQVTVSS,low polyreactivity

row,Sequence,polyreactivity (PSR sort gate)
1,QVQLVESGGGLDQAGGSLRLSCAASGLTSLGNAMGWYRQAPGKERELVAAITRTGTSTYYADSVKGRFTISRDNAKNTVYLQMNSLKPEDTAVYYCNADGQSQYRYGSQYRYDYWGQGTQVTVSS,low polyreactivity
2,QVQLVESGGGLDQAGGSLRLSCAASGNIFVEYAMGWYSQAPGKERELVAAITNSGGRTHYADSVKGRFTISRDNAKNTGSLQMNSRKPEDTAVFYCAAPTKYRSRRYYWGQGTQVSVSS,high polyreactivity
3,QVQLVESGGGLDQAGGSLRLSCAASGNTFFWPNAMGWYRQAPGKERELFAGISYRGASTYYADSVKGRFTISRDNAKNTVYLQMNSLKPEDTAVYYCAADNTPRGRRQNRDMYYWGQGTQVTVSS,high polyreactivity
4,QVQLVESGGGLDQAGGSLRLSCAASGRIFNVYAMGWYRQAPGKERELVASITSAGSTYYADSVKGRFTISRDNAKNTVYIKMNSLKPEDTAVYYCAADCYSVYYSTYDSWGQGTQVTVSS,low polyreactivity
5,QVQLVESGGGLDQAGGSLRLSCAASGRIFVFYTMAWYRQAPGKERDLVAAITKSGGSTYYADSVKGRFTISRDNAKNTVYFQMNSLKPEDTAVYYCATRDSPRTKNGYYYWGQGTQVTVSS,high polyreactivity
6,QVQLVESGGGLDQAGGSLRLSCAASGRTFAYYTMGWYRQAPGKERELVAAITSSGGSTYYADSVKGRFTISRDNAKNTVYLQMKSLKPEDTAVYYCNAYGLRWASRLGYDYWGQGTQVTVSS,high polyreactivity
7,QVQLVESGGGLDQAGGSLRLSCAASGRTFGRNAMGWYRQAPGKESELVAASSTRGGSTFYADSVKARFTISRDNAKNTVYLQMNSLKPEDTAVYYCAAAGTARWPRPTSGLLDYYYWGQVTQVTVSS,high polyreactivity
8,QVQLVESGGGLDQAGGSLRLSCAASGRTFIAYARGWYRQAPGKERELVAAITSSGGSTNYADSVKGRFTISRDNAKNTVYLQMNSLKPEDTAVYYSATDIYECPYFYYSYYYWGQGTQVTVSS,low polyreactivity
9,QVQLVESGGGLDQAGGSLRLSCAASGRTFIGYAMGWYRQAPGKVRELVAAFNWSGARTYYADSVKGRFTISRDNAKNTVYLQMNSLKPEDTAVYYCAAVPVTSQTKYGYWGQGTQVTVSS,high polyreactivity
10,QVQLVESGGGLDQAGGSLRLSCAASGRTFRHYAMGWYRQAPGKERELVASIRWNGASTNYADSVKGRFTISRDNAKNTVYLQMNSLKPEDTAVYYCAARFGSGFNYWGQGTQVTVSS,high polyreactivity
11,QVQLVESGGGLDQAGGSLRLSCAASGRTFYYYAMGWYRQAPGIERELVAAISWSGGNTYYADSVKGRFTISRDNAKNTVYLQMNSLKPEDTAVYYCNRAYRTLTARTGRYDYWGQGTQVTVSS,high polyreactivity
12,QVQLVESGGGLDQAGGSLRLSCAASGRTINGNTMGCYRQAPGKQRELVAVIDWSGGSTYYADSVKGRFTISRDNAKNTVYLQMNSLKPEDTAVYYCNAETRDPILYGEYDYWGQGTQVTVSS,low polyreactivity
13,QVQLVESGGGLDQAGGSLRLSCAASGSIFASNAMGWYRQAPGKERELVAAINSGDSTNYADSVKGRFTISRDNAKNTVYLQMNSLKPEDTAVYYCARGLEERYDYWGQGTQVTVSS,low polyreactivity
14,QVQLVESGGGLDQAGGSLRLSCAASGSIFDYYAMGWYRQAPGKERELVARISYSGGTTYYADSVKGRFTISRDNAKNTVYLQMNSLKPEDTAVYYCNARIPYSWRYGYWGQGTQVTVSS,high polyreactivity
15,QVQLVESGGGLDQAGGSLRLSCAASGSIFESYAMGWYRQAPGKERELVAAITKRGGSTYYADSVKGRFTISRDNAKNTVYLQMNRLKPEDTAVYYCNASWPGIGPIYDYWGQGTQVTVSS,low polyreactivity
16,QVQLVESGGGLDQAGGSLRLSCAASGSIFGSYTLGGYRQAPGKERELVAVINWSGDRTYYADSVKGRFTISRDNAKNTVYLQMNSLKPEDTAVYYCAARERAAYSRIRYNYWGQGTQVTVSS,high polyreactivity
17,QVQLVESGGGLDQAGGSLRLSCAASGSIFNDNVMGWYRQAPWKERELVAGISRSGTRTYYADSVKGRFTISRDNAKNTVYLQMNSLKPEDTAVYYCAAAYGQARRYNGSQYGSWGQGTQVTVSS,high polyreactivity
18,QVQLVESGGGLDQAGGSLRLSCAASGSIFPPYAMGWYSQAPGKERELVATITIRGGSTYYADSVKGRFTISRDNAKNTVYLQMNSLKPEDTAVYYCAADYTKYYRRYYYWGQGTQVTVSS,high polyreactivity
19,QVQLVESGGGLDQAGGSLRLSCAASGSIFYAYAMGWYRQAPGKEREFVAVISRGGITNYADSVKGRFTISRDNAKNTVYLELNSLKPEDTAVYYCAAGTSAWGYLRRYGYWGQGSQVTVSS,low polyreactivity
20,QVQLVESGGGLDQAGGSLRLSCAASGSIFYDNTMAWYRQAAGKERDLVADISSGDSTYYADSVKGRFTISRDNAKNTVYLQMNSLKPEDTAVYYCNADVYSWVSVKEGDYWGQGTEVTVSS,low polyreactivity
21,QVQLVESGGGLDQAGGSLRLSCAASGSIFYFYTMGWYRQAPGKEREFVAAINGIGGSTYYADSVKGRFTISRDNAKNTVYLQMNRLKPEDTAVYYCAADAPWFKRNARKYNYWGQGTQVTVSS,low polyreactivity

# — the nanobody polyreactivity screen of Harvey et al. (2022)
